Assay results as given in the DeepSol protein solubility set.

assay: soluble on expression in E. coli; label from the status in PepcDB or PDB records

Q: With “MGSDKIHHHHHHMKKMTILSAAVLMALGAPVAMAKVSEAEAAKLGAELTPQGAVKAGNADGSIPAWDGGITTAVAGYSQGMHHPDPFPTDKILFTITNANKAQYKDFLNPGQVKLFELYPETYKMNVYETRRTASVPQYVYDATKANATRAELIAQGNGISGATIGVPFPIPANGLEVIWNHVLRFRGVDLETNRSQASPTADGSYTLVETAEELRFEYSRPEITLDKLKETNTLFFFKQVVTQPARLAGTALLVKETMDQEALPRQAWTYNTGQRRVRKAPNIAFDTPGTVADGLRTTDDFDMFNGSPVRYNWELVGKKEMYIPYNDYKLHSDSLKYDQILKPGHINPDLVRWEKHRVWEVKATLKAGMRHIYKTRVFYIDEDSWQVSLTDMYDNRDELYRVANAHSINYYEVPTLWTTLEVFHDLQSRRYLAMGLDNEGRMYNFKANLTESNFTPDALRRAGIR” as the sequence, how does the “soluble on expression in E. coli” value read?
A: not soluble

Q: For “MGSDKIHHHHHHMTISIPDTLTTDNSEKYIVSIRLRSGGLSFSGYDPSAGGSFFYRETEFDRAVSFISSLKEFFFAHEFLTWTYKRINVICVSPEYSLVPDNYWGDGKEGRLLDFSFSTLELHCLTDTLKEQQAKLVFGVDEEVYEFCSRSLLHPFFSHYMTSLLTLWTKESSASLPRQMYVVIERKRMDVACYAQGKLLFVNSYPIDQSDDIVYYILYVWKQAGLDQEKDQLLLAGESSSRMRVLERLRAYLRHVKPVEIPSEAYLLGTDVTKAPMDLISLLICE”, which “soluble on expression in E. coli” value is on record?
A: not soluble

Q: With “EYSYQYNLRVEPGVSHQRANIGIDYQGMDWIIGPNYTAEQARIILRLDDQTRYVLQPEKRHYPVRVMNMTEPAILSLWHGDYYLTLGDKVGTNAYAIKVQ” as the sequence, how does the “soluble on expression in E. coli” value read?
A: not soluble

Q: With “MEKTSNTSKPLSRSEINKIIAVATGIKEKKIKEIFKYLNTLLLNELVSRSVCILPENLGKLRITIRNARYQKDMQTGEIRHIPPKPLVRYSPSKTIKETAAKVRWKYAD” as the sequence, how does the “soluble on expression in E. coli” value read?
A: soluble

Q: Which “soluble on expression in E. coli” value does the source give for “GGELVLLPAPQIPLIMKIMKKHTPTWVPGVPTLYQKIVEAAERDGISISGVRNSFSGASSLPVETVARWEALTGGLLVEGYGLTETSPIIVGNPMTTDRRPGYVGVPFPDTEIRIANPDNLDETMPDGQEGEVLVRGPQVFSGYLNNPEATAKSFHGQWYRTGDVGIMEEDGFIRLVARIKEVIITGGFNVYPAEVEEVLRNHPDITDATVVGLPRGD” here?
A: not soluble

Q: For “MSLNQLLFVPLGGIGEIGMNLALYGYGPEHAREWIAVDVGISFAGADFPGVDLVFPDIRFIEELGDKLKGIVITHAHEDHYGALLDLWPKMKVPVYATAFTAAMLAAKREGEPGAPKIPVTQFSAGDRFKVGPFEIEAINVTHSIPEPVALAIRSPAGTVVHTGDWKIDPTPALGAPTDEKRLREIGDEGVLAMICDSTNALREGVSPSESEVSASLGEIIRGAKGRVAVTTFSSNVGRIRSIAAAARDAGRQVLLMGRSMRRVVDVSTELGYMDGIPPFLGEQDFGYIPPEKAVIILTGSQGETRAALARLSRDEHPTVALSQGDLVIFSSRAIPGNEKLIIDIKNALIERGVQILEDGEKLVHVSGHPRRSEMRQMYEWVRPTIAVPAHGEAAHLSAHAKLARELGVKQVVPARNGKMVQLSPGAASVIADVPVGRLFKDEGHHHHHH”, which “soluble on expression in E. coli” value is on record?
A: soluble

Q: For “MAVLYLVGTPIGNLADITYRAVDVLKRVDMIACEDTRVTSKLCNHYDIPTPLKSYHEHNKDKQTAFIIEQLELGLDVALVSDAGLPLISDPGYELVVAAREANIKVETVPGPNAGLTALMASGLPSYVYTFLGFLPRKEKEKSAVLEQRMHENSTLIIYESPHRVTDTLKTIAKIDATRQVSLGRELTKKFEQIVTDDVTQLQALIQQGDVPLKGEFVILIEGAKANNEISWFDDLSINEHVDHYIQTSQMKPKQAIKKVAEERQLKTNEVYNIYHQIS”, which “soluble on expression in E. coli” value is on record?
A: not soluble

Q: Which “soluble on expression in E. coli” value does the source give for “MGSDKIHHHHHHMNGLDVLLSNNQNHHFYGVTIGVVTNNKDPKKLGRVKVKFPWLSSEEESYWARVVTLMAGNDRGIYFLPEVDDEVLVAFEQGDMNFPYILGALWNGKDKPPITNEDGKNNQRVIKSRSGHMIVLDDTEENEQIIIQDKTGKNKIVINSKENKMNIQVEKDLTIETKGKIILKSSDDDISIDCKNLQIKTQQNYQLEVGANCTIKAKSKYKLEAQSGLGIKCAAGVKINDGSLEVM” here?
A: not soluble

Q: Which “soluble on expression in E. coli” value does the source give for “MAWALPAQAEQLIYGFQAEQLEYRQGDSEDSFVWDFDALIGTDELKLVWRSEGERVQGAGGFETLENQLRLQFPVSTFFDAVVGVQASTPDGLPDRYNAVLGLKGLAPQWFEIDADLYLSDNSFFRFEGEYEAMLTNRLTLTPSLELTLPLQDDPIYNQAAGGVTLEAGLRLSYDLIDRAVSPYIGVNYERSYGGTADMIRAAGDENGAFSVVFGTRLMFLEHHHHHH” here?
A: not soluble

Q: For “MGSDKIHHHHHHMNRVISVGFEHPKSYLDSNQSVEAKSRIDSYIDKKMDEWNKEVVYAKHLYEPSVNKEYYKRHMIEHVWRIRMSRTVQAKALHQIAKISPEAAQLYARYQDEEMLHDILFKQDALALGVTEDTIKNTEPMFATRLLMGFKYFVAEHENPLGAVAYSYLVEYVTAKITPDQVSNLKSELGSENIKGQVAHINTDLSHDHSGDMWEIVRALLFTESDIEMFIKYIDEIQDLLAMYFKELYEKTIAKNESQAA”, which “soluble on expression in E. coli” value is on record?
A: not soluble

Q: For “HGIQLLGYARKILRFNDEACSSLMFSNLQGVLTIGASDESADTILPFLLNRVSSVYPKLALDVRVKRNAYMAEMLESQEVDLMVTTHRPSAFKALNLRTSPTHWYCAAEYILQKGEPIPLVLLDDPSPFRDMVLATLNKADIPWRLAYVASTLPAVRAAVKAGLGVTARPVEMMSPDLRVLSGVDGLPPLPDTEYLLCYDPSSNNELAQVIYQAMESYHNPWQYSPMSAPEGDDSLLIERDIE”, which “soluble on expression in E. coli” value is on record?
A: soluble

Q: With “FFSNAEVAERLAYPQLIEALRIGLAKPCSAPLRNCHALPAQASLLQMPVWQAGAGIGVKLVTVFPGNGARGLPAVAAVFALFDGEDGRPLALLEASELTARRTACSSALAADYLARDDARRLLVVGCGTLAAHMVRAHACVRDYRHIDIWGRDPAKAAALAARLREEGYPARAADGLRAAVEAADCVSCVTTSREALVRGAWLKPGVHLDLVGAFLPSMRETDVLAVARARVVVDTRAGALEEAGDLLQAIAEGAIGREAISTELRDLLSGAGRRGDPGEITLFKSVGYALEDLVAARRVV” as the sequence, how does the “soluble on expression in E. coli” value read?
A: not soluble

Q: With “MKVRAQVPTVKNATNFNMVADSKTAVGSTLENLKAAIAGETGAHAKYTAFAKAAREQGYEQIARLFEATAAAELIHIGLEYALVAEMEPGYEKPTVAAPSAYSCDLNLISGANGEIYETSDMYPAFIRKAQEEGNSKAVHVFTRAKLAESVHAERYLAAYNDIDAPDDDKFHLCPICGYIHKGEDFEKCPICFRPKDTFTAY” as the sequence, how does the “soluble on expression in E. coli” value read?
A: soluble

Q: Which “soluble on expression in E. coli” value does the source give for “MGSDKIHHHHHHMKKKDMNKQVKIQDAVAAIILAEGPAGVSTTKVAKRVGIAQSNVYLYFKNKQALIDSVYARETNRILSTTDLDRLSDSTIDVTTRIRLYVQQVYDYSLANPDSLTIIQQIKALNGQGMTISAADADPNNIVANLLTAAIDAKVIKQLPVSLHMGVVFSTIHTHTTNISKGRYAQDQYTFGDIFQMIWDAMKQD” here?
A: not soluble

Q: Which “soluble on expression in E. coli” value does the source give for “MAMHTWFECKIRYEKTMENGMQKKVTEPYLVDALSFTEAEARIIEEMTPFITGEFTVSDIKRANYSELFPSDEESADRWFKCKLIFITLDEKSGAEKKTSTQVLVQAADLRDAVKKLDEGMKGTMADYQIGMVSETPLMDVYPYSAGPNDKPEFDPSKA” here?
A: not soluble

Q: With “MKTFKAVRFQIVNEHGRIIEYELEDGVIINKEESGTGWLLEIVISNEHYETFKEYQDNEQLLDIRVVITRPANDPALFESTVKSIKNFKTTMSIVFECHIYTLRQQYAESLLEQLIDDGLSGEELKKSFNRMMQSKPKLKDEKLEE” as the sequence, how does the “soluble on expression in E. coli” value read?
A: not soluble

Q: For “MELSSPGVGSGLDVKNLVDAIVTAEITPSQVRHDKQLNSVNTELSALGQLKSYLTNLQTSLAKLSSLSQFYTMKSTISDPNYFSATLGTGATKNTYQIEIQKLAQQHS”, which “soluble on expression in E. coli” value is on record?
A: not soluble

Q: Which “soluble on expression in E. coli” value does the source give for “MNPESRVIRKVLALQNDEKIFSGERRVLIAFSGGVDSVVLTDVLLKLKNYFSLKEVALAHFNHMLRESAERDEEFCKEFAKERNMKIFVGKEDVRAFAKENRMSLEEAGRFLRYKFLKEILESEGFDCIATAHHLNDLLETSLLFFTRGTGLDGLIGFLPKEEVIRRPLYYVKRSEIEEYAKFKGLRWVEDETNYEVSIPRNRIRHRVIPELKRINENLEDTFLKMVKVLRAEREFLEEEAQKLYKEVKKGNCLDVKKLKEKPLALQRRVIRKFIGEKDYEKVELVRSLLEKGGEVNLGKGKVLKRKERWLCFSPEV” here?
A: soluble

Q: Which “soluble on expression in E. coli” value does the source give for “MGSDKIHHHHHHIRPIQRGKANAKVEFGAKIDCSLSEGVVDIERFDFTAFSEGQDFTETLDHYYDLHGHYPDEVLADTLYRNRENLKLCKDLGIRVCGPKLGRHPKNVDAAKRREDTDAENRRGTIERRFAFMKGTLGLDLVNTRTAESLAVKIDAAIVLSNALTLLRVFAIPILILAKFEGEAYRIRYKFTTRVEDMLA” here?
A: not soluble

Q: For “SRTLQFTKMATDHSGAGNLMDCWNAGLELKSCTDEIVKFFLSQTGTSEPPVKGGIDKDCCGAIGLVVKDCWSVMFTSLGLTTMEGNNLREYCEFQAEKSELSPSPAPETLALSPVEITYPGLDY”, which “soluble on expression in E. coli” value is on record?
A: soluble

Q: Which “soluble on expression in E. coli” value does the source give for “MSACAPVHRDPPAPASLRAMPGARWLSGVVLGGLSLGLMACGPKDIEGLRTADYLGGDQRSGVLTYRETPPMGGPYNPLWQTCAAYAQPVYNEYAVHSLARGAVWVTYRPGLDAAELDKLKALLAGQPAALLSPYPNLPAPVVMTAWNRQLSAQTADDPRLTRFLKEILPENSAPEKGSPCARGFGGTR” here?
A: soluble

Q: For “MGSDKIHHHHHHATAPSPDFNEARFRNDIKILSSDAFEGRAPTTAGEKLTLDYLSTAFKAAGLKGTNNGSFLQSVPMVTYNASENQAIRLGNLHPAYRKDIVLGSRHNNQGVEISNAPLVFVGYGIKAPEYDWDDYAGLDMQGKIAVILVNDPGFAAPESGKFKGKAMTYYGRWSYKFEEASRQGALGAIIIHDTAPASYPWSVIENSWTGPQQDLADASQTDSRVQVEGWMTLDTAKALFDEAGLSLDTLSQEAALTPGNHDLKQSADIAFTNSATFTDSYNLVATLPGTDRADEHILFTAHWDHIGKDDSRDGDKIYNGALDNASGVAGIVEIARQFAALDAMGFKNRRSITFIATTGEEQGLLGSRYYAANPLFPIDKTIAVLNLDSTNVFGRTKDFTIVGKGQSQLEDYLVAAAKAQGREAVAEKNPASGGFFRSDHFSFAKLGVSAAFAGGGSIPLDDATATYKAEMQQKMKGCYHNVCDEYRADWDLSGALQDLALYYDVARTLANNEHRPGYYQKSEFYPLRPAN”, which “soluble on expression in E. coli” value is on record?
A: not soluble

Q: Which “soluble on expression in E. coli” value does the source give for “MNLKDMEQNSAKAVVLLKAMANERRLQILCMLHNQELSVGELCAKLQLSQSALSQHLAWLRRDGLVTTRKEAQTVYYTLKSEEVKAMIKLLHSLYCEE” here?
A: soluble

Q: With “VEPDIRTGTIQDVQHVVILMQENRSFDHYFGHLNGVRGFNDPRALKRQDGKPVWYQNYKYEFSPYHWDTKVTSAQWVSSQNHEWSAFHAIWNQGRNDKWMAVQYPEAMGYFKRGDIPYYYALADAFTLCEAYHQSMMGPTNPNRLYHMSGRAAPSGDGKDVHIGNDMGDGTIGASGTVDWTTYPERLSAAGVDWRVYQEGGYRSSSLWYLYVDAYWKYRLQEQNNYDCNALAWFRNFKNAPRDSDLWQRAMLARGVDQLRKDVQENTLPQVSWIVAPYCYCEHPWWGPSFGEYYVTRVLEALTSNPEVWARTVFILNYDEGDGFYDHASAPVPPWKDGVGLSTVSTAGEIEVSSGLPIGLGHRVPLIAISPWSKGGKVSAEVFDHTSVLRFLERRFGVVEENISPWRRAVCGDLTSLFDFQGAGDTQVAPDLTNVPQSDARKEDAYWQQFYRPSPKYWSYEPKSLPGQEKGQRPTLAVPYQLHATLALDIAAGKLRLTLGNDGMSLPGNPQGHSAAVFQVQPREVGNPRFYTVTSYPVVQESGEELGRTLNDELDDLLDANGRYAFEVHGPNGFFREFHGNLHLAAQMARPEVSVTYQRNGNLQLNIRNLGRLPCSVTVTPNPAYTREGSRRYELEPNQAISEVWLLRSSQGWYDLSVTASNTEANYLRRLAGHVETGKPSRSDPLLDI” as the sequence, how does the “soluble on expression in E. coli” value read?
A: not soluble
